According to paper PMC8591454 (Frontiers in Microbiology, 2021):

Target: T1, truncated capsid protein sar239 from genotype 1 HEV Sar55 strain (hepatitis E virus genotype 1, strain …, UniProt P33426 368-606)
T1 sequence: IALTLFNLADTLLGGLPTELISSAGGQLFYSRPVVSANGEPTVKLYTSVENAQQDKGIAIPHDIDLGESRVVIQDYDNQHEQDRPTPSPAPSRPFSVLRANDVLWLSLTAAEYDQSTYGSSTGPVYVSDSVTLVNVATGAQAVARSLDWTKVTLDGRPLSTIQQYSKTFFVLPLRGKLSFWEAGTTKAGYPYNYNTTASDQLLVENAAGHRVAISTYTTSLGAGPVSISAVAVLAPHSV
Experiment: ELISA
Details: both partners purified

B1: His-tagged cell division control protein 42 (CDC42-His) (natural protein)
chain: not shown
notes: also called recombinant CDC42-His protein
Q: Does B1 bind?
A: Result: binds
